The record followed here is US20170233441A1.

Assay [1] concerns the target BG505 SOSIP.664 trimer+sCD4 complex (HIV-1 strain BG505; human) (UniProt P01730).
Assay [2] concerns the target BG505 SOSIP.664 HIV-1 Env ectodomain trimer (HIV-1 strain BG505). Kind of assay: crystal structure, interfaces between protomers.
Assay [3] concerns the target gp120 subunit of BG505 SOSIP.664 (HIV-1 strain BG505). Kind of assay: crystal structure; includes 216 Å^2 from glycan-protein interactions.
For assay [4], the target named is gp41 ectodomain subunit of BG505 SOSIP.664 (HIV-1 strain BG505). The assay can be described thus: crystal structure, interfaces between protomers.
Assay [5] addresses gp120 subunit of BG505 SOSIP.664 (HIV-1 strain BG505). The assay can be described thus: crystal structure, interfaces between protomers.

In assay [1], 3074 antibody came in with a t1/2 of CD4-induced exposure of the epitope of 4.2 h. Take “BG505 SOSIP.664 HIV-1 Env ectodomain trimer”: the buried surface of the trimer interfaces, contributed by each protomer in assay [2] was 3140 Å^2. For “gp41 ectodomain subunit of BG505 SOSIP.664”, the buried surface within a single protomer in assay [3] came out at 5270 Å^2. Moreover, in assay [4], the buried surface of the gp41-gp41 trimer interface was determined as 1920 Å^2. In assay [4], gp120 subunit of BG505 SOSIP.664 came in with a buried surface of the gp120-gp41 interface between protomers of 360 Å^2. The same substance registered a buried surface of the gp120-gp120 trimer interface in assay [5] of 861 Å^2.
